Measurements: patent publication EP2762886A1

Molecular target: 4E wild type (overexpressed in stably transfected NIH3T3 cells)
Assay: cell-based or functional assay

human promyelocytic leukemia protein PML (overexpressed from pLINKSV40-PML) (from UniProt P29590 1-882)
viability of serum deprived cells (annexin V / propidium iodide flow cytometry) (% viable cells): 40
